Source: the supplement of paper PMC9170038

Tested on: MS2 coat protein
Experiment: apparent KD of MS2 coat protein; designed switch direction (-1 OFF switch, 1 ON switch): -1; higher = weaker reporter binding
How it was run: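 Designed RNA switches with common flanks were made on Illumina chips by stalled E. coli RNA polymerase. Titration with SNAP-549-labelled MS2 coat protein doubled from 0.7 or 1.5 nM up to 3 µM. Apparent KD is each design's median over clusters after curve-fitting normalised fluorescence.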

[1] = input ligand: microRNA oligo, concentration not stated
[2] = Eterna round: R95, input ligand: microRNA oligo, concentration not stated
[3] = Eterna round: R95, input ligand: FMN 200 uM
[4] = Eterna round: R95, input ligand: none

Sequence	apparent KD of MS2 coat protein (input ligand: FMN 200 uM) [nM]	apparent KD of MS2 coat protein (input ligand: none) [nM]	apparent KD of MS2 coat protein [2] [nM]	other results
UGAUCUAGCGGAGGAUAUACAUGAGGAUCACCCAUGUAUACUCUAUGACCGUAGUCGUGGAGCGUGUAGAAGGCCGCUAGAUCU [JL ENG2 3.76] (Eterna round: R96, puzzle: Exclusion NG 2)	14.6	11.6		apparent KD of MS2 coat protein [1]: 9.1 nM
GUAAUGCUGCGAGGAUAUACAUGAGGAUCACCCAUGUGGAUGUCUGAGGCAAAGCCUCAGACGAUGUAGAAGGCGCAGUAAAAU [Mat - Exclusion NG 2 - Mod of JL - D54] (Eterna round: R96, puzzle: Exclusion NG 2)	85.7	44.4		apparent KD of MS2 coat protein [1]: 17.6 nM
CCACGACAUGAGGAUCACCCAUGUGAGGAUAUGGCCUGAAAAGCGUGAGCAGUUUCAAUCAGAAGGCGCGUGGG [salish99_ex1_r4_062] (Eterna round: R97, puzzle: Exclusion 1)	162	62.2		
UUAUACGCUGAGGAUAUUAUCACUGAGAGGUGAUGAGAAGGCGGUACAUGAGGAUCACCCAUGUCUAUGGGCAG [Ex-6 Malc#22] (puzzle: Exclusion 6)			237	
CAGAAUUGAGGAUAUGAUCAAUUUAACAUGAGGAUCACCCAUGUAUGGGAAUGAUUCUGAUCAGAAGGCGAUUCUU [Exclusion 5: 1:a] (Eterna round: R96, puzzle: Exclusion 5)	960	633		apparent KD of MS2 coat protein [1]: 511 nM
CUUCGACAUGAGGAUCACCCAUGUCAGGAUAUUGUGUAUCGGGUUUUUUACGGAAAGGCGAGAAGGGAUGUGUG [LRO-Excl1-09] (puzzle: Exclusion 1)			22	
AGAAAUGCCCAUGGCCGCAAGCUUUUUGCUUGUCUUACCACAUGAGGAUCACCCAUGUGACAUGGGCUCCUGAUAAU [Bivequ] (puzzle: Sensor v3, turn-off variant 2)			10.7	apparent KD of MS2 coat protein [3]: 13.7 nM; apparent KD of MS2 coat protein [4]: 12.1 nM
AAUUUACAUGAGGAUCACCCAUGUGAGGAUAUGAUACUAUGUACUUCGGUACAUAGUAUCAGAAGGCAUGUGGG [Ex1-3: 93] (puzzle: Exclusion 1)			19.1	
GUCAUACAUGAGGAUCACCCAUGUAAGGAUAUGCUAGCGGUCGGAAGAAUGACUGCUAGCAGAAGGUACAUGAU [Mat - Mod of JL D83] (puzzle: Exclusion 1)			62.5	
AGGGUGGGAGGAUAUCCAAUAUAUGACAUGAGGAUCACCCAUGUUUCCACUCGUACCUCCGGAGAAGGCCCUCCCA [Ex5 #22] (Eterna round: R97, puzzle: Exclusion 5)	21.5	22.1		
AAGAAACAUGAGGAUCACCCAUGUGAGGAUAUGAAAAAUAAAAGAAAAGAAAUAAUAAUCAGAAGGCACAAAGG [Mat - Mod of Hog D9] (puzzle: Exclusion 1)			26.6	apparent KD of MS2 coat protein [3]: 43 nM; apparent KD of MS2 coat protein [4]: 28.9 nM
GCACUGCGAGGAUAUACAUGAGGAUCACCCAUGUGUCGGCAGCCAUGCCAGUACAAAUGUAGAAGGCGCGUAAA [EX3 #55] (Eterna round: R97, puzzle: Exclusion 3)	88.1	27		
UAGUUACAUGAGGAUCACCCAUGUGAGGAUAUGAGUCAGUCACGGUGACGUGGCUGACUCAGAAGGCACAAAGG [Mat - Exclusion 1 - JL Mod - D38] (Eterna round: R97, puzzle: Exclusion 1)	430	126		
UUCUUGGCAGGAUAUGCUUUUUUAGACAUGAGGAUCACCCAUGUGUUUAUUUUUUUUUUUGCAGAAGGGCCUUAAU [JR_E5_Sub043] (puzzle: Exclusion 5)			26.9	
ACGCAACAUGAGGAUCACCCAUGUGAGGAUAUGUAAAUAGUAAACAAAUAGGAAAUGAACAGAAGGCACACCGG [JR_Exclusion1_Sub005] (puzzle: Exclusion 1)			32.5	
